# Source: publication doi:10.1101/2021.04.06.438592, “Structural basis for how sMAC is packaged for clearance” (bioRxiv, 2021)
# Several values for one entry are separate records, joined by “and”; a condition that tells them apart may be missing. Equal entries are not always repeated.
# B1: complement C9 (natural protein)
# chain: not shown
# modifications: N-linked glycan (NAG) on Asn394
# notes: One to three copies stand in sMAC, in two conformations; also called C9_(1); C9_(2); source: bought: Complement Technologies (as part of purified sMAC)
# Assays:
# Settings in all cases: both partners purified
# complement C9 = target: B1; experiment: cross-linking; XL-MS of purified sMAC (0.5 mg/ml) with 1 mM DSS or 15 mM DMTMM, 30 min at RT, triplicates; LC-MS/MS, pLink
# [1] = target: T1, complement C8 (C8α/C8β/C8γ) (human, UniProt P07357 31-584; P07358 55-591; P07360 21-202); experiment: as above
# T1 construct: complement component C8 alpha chain, human; complement component C8 beta chain, human; complement component C8 gamma chain, human; Kept as one molecule; source: bought: Complement Technologies (as part of purified sMAC); copies: 1 + 1 + 1
# [2] = target: T1, complement C8 (C8α/C8β/C8γ); experiment: cryo-EM structure; purified sMAC (Complement Technologies) at 0.065 mg/ml in 120 mM NaCl, 10 mM Hepes pH7.4; 3D classes with 1, 2 or 3 C9; focused refinements after density subtraction
# T1 sequence (P07357 31-584, chain 1 of 3): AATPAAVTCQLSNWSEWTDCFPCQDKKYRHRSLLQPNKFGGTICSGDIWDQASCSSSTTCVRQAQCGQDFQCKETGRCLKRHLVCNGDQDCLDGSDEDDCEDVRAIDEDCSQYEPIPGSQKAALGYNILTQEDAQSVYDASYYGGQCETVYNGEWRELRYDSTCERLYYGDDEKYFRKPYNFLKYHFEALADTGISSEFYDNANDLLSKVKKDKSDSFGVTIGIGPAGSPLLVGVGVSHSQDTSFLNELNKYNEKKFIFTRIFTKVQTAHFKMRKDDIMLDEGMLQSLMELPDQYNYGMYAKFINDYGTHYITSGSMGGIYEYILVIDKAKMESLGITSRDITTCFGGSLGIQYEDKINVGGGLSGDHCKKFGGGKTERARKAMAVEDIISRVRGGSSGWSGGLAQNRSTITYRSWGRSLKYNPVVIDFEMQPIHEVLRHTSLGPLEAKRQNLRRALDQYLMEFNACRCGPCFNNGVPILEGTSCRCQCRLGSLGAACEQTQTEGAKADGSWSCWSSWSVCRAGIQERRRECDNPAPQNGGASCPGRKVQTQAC
# T1 sequence (P07358 55-591, chain 2 of 3): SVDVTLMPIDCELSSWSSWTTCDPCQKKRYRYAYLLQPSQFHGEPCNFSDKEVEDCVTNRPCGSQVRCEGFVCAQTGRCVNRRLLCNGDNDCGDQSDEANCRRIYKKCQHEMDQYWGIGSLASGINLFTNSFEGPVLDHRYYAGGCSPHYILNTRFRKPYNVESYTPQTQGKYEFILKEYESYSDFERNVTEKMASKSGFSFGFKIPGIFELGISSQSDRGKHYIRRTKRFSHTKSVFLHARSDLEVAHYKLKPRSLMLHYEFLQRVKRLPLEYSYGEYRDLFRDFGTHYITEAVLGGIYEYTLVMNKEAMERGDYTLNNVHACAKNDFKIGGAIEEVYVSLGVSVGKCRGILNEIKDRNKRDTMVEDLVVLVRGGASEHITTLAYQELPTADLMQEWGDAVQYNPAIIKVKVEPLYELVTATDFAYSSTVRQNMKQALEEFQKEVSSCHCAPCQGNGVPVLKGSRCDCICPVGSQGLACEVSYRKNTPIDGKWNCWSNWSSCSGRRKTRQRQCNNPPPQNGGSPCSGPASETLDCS
# T1 sequence (P07360 21-202, chain 3 of 3): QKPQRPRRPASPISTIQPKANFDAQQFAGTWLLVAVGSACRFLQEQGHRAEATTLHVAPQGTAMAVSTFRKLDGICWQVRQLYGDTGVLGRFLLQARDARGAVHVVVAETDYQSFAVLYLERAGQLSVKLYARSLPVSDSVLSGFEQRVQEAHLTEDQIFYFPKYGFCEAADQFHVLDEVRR
# Sequence of complement C9 (P02748 22-559): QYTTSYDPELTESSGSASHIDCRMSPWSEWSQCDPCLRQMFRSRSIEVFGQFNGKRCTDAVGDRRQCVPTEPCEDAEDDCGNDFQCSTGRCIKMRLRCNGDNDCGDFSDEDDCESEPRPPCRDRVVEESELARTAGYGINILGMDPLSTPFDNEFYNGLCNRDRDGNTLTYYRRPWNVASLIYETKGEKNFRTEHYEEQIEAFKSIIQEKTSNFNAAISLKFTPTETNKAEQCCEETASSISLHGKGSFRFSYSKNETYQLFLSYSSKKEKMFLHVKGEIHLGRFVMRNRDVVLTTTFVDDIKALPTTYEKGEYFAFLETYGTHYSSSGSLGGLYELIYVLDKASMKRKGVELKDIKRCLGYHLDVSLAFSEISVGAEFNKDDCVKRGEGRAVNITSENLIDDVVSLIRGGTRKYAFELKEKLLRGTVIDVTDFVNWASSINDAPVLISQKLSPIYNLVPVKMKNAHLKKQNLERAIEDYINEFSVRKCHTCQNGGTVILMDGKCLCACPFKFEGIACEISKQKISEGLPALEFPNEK
binding result (complement C9),binding result [1],stoichiometry N [2],Binder
binds,binds,–,"clusterin (natural protein, human, highly glycosylated | highly glycosylated, Secreted clusterin, about 80 kDa; multiple copies in sMAC; Not modelled in the deposited structures; the clusterin core model (residues 40-124 and 256-427) is a prediction; also called apolipoprotein J; source: bought: Complement Technologies (as part of purified sMAC)) chain 1: DQTVSDNELQEMSNQGSKYVNKEIQNAVNGVKQIKTLIEKTNEERKTLLSNLEEAKKKKEDALNETRESETKLKELPGVCNETMMALWEECKPCLKQTCMKFYARVCRSGSGLVGRQLEEFLNQSSPFYFWMNGDRIDSLLENDRQQTHMLDVMQDHFSRASSIIDELFQDRFFTREPQDTYHYLPFSLPHRRPHFFFPKSRIVR chain 2: SLMPFSPYEPLNFHAMFQPFLEMIHEAQQAMDIHFHSPAFQHPPTEFIREGDDDRTVCREIRHNSTGCLRMKDQCDKCREILSVDCSTNNPSQAKLRRELDESLQVAERLTRKYNELLKSYQWKMLNTSSLLEQLNEQFNWVSRLANLTQGEDQYYLRVTTVASHTSDSDVPSGVTEVVVKLFDSDPITVTVPVEVSRKNPKFMETVAEKALQEYRKKHREE"
–,–,1 copies and 3 copies,B1
